This is an account of results in patent US20200239529A1.

The target of this assay is CXCR4 (human) (UniProt P61073). Description: cell-based or functional assay.
Chain of UniProt P61073 (P61073 whole entry): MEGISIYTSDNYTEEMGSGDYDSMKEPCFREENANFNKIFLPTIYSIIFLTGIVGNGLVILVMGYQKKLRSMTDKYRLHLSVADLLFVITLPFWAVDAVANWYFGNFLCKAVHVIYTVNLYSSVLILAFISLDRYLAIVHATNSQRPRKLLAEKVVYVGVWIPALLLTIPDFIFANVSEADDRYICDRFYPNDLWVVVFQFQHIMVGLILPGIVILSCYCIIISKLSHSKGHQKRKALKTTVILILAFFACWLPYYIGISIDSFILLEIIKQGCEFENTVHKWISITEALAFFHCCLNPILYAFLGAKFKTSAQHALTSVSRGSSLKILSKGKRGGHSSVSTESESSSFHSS

The substance “T22-DITOX-H6 (from UniProt P00587 26-411)” yielded an IC50 of killing cultured HeLa cells of 0.78 nM.

The substance T22-PE24-H6 gave an IC50 of killing cultured HeLa cells of 0.99 nM.
